The results in this text go back to patent publication US20060246440.

For this data set, the target named is T1, GP-NRSF1-8 (UniProt Q13127).
T1 sequence: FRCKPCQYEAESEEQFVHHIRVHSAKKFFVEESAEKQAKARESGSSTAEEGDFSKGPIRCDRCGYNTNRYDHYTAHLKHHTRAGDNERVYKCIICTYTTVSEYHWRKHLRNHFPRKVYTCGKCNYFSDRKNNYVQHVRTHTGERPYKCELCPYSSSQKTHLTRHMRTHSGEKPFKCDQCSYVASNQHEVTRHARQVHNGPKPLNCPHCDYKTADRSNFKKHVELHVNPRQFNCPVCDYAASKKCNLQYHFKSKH
In words: one_hybrid. As to conditions: bacterial two-hybrid lacZ reporter; nearly 7-fold vs Gal11P only.

consensus NRSE (21 bp) had an activity (fold activation) of 7.
